In patent publication US20200147235A1 (AbbVie / Abbott, published 2020) one finds Kd, koff and kon data, which are given here for ten molecules.

Substitutions are numbered along the chain they refer to.

B1: huAb108 (antibody, human IgG1, kappa, L234A L235A, V domains shown)
VH: EVQLVQSGAEVKKPGASVKVSCKASGFTFSDYTMAWVRQAPGQGLEWVATIIYSGRGTYYRDAVKGRFTITRDNSTSTLYLELSSLRSEDTAVYYCARQSDDTYYYWGYFDYWGQGTMVTVSS
VL: DIVMTQTPLSLPVTPGEPASINCKSSQSLLFSGNQKNYLAWYLQKPGQSPQLLIYWASTRQSGVPDRFSGSGSGTDFTLKISRVEAEDVGIYYCQQYYDVPYTFGQGTKLEIKR
notes: Framework re-engineered humanized clone (parent huAb15v2); also called CL-huAb108
B2: huAb110 (antibody, human IgG1, kappa, L234A L235A, V domains shown)
VH: B1 VH with S54D, G55A
VL: B1 VL with D99S, V100S
notes: Framework re-engineered humanized clone (parent huAb15v6); also called CL-huAb110
B3: huAb101 (antibody, V domains shown)
VH: EVQLVESGGGLVKPGGSLRLSCATSGFTFIDYYMSWVRQAPGKGLEWLGFIRNKANRYTTEYSASVKGRFTISRDNSKSILYLQMNSLKTEDTAVYYCTRDRPAWFVYWGQGTLVTVSS
VL: DIVMTQTPLSLPVTPGEPASISCKSSQSLLYSSNQKNYLAWYLQKPGQSPQLLIYWASTRESGVPDRFSGSGSGTDFTLKISRVEAEDVGVYYCQQYYSYPYTFGGGTKVEIK
notes: Framework re-engineered humanized clone (parent huAb3v1), expressed as full-length IgG
B4: huAb107 (antibody, V domains shown)
VH: EVQLVESGGGLVQPGGSLRLSCAASGFTFSDYTMAWVRQAPGKGLEWVATIIYSGRGTYYRDAVKGRFTISRDNAKNTLYLQMNSLRAEDTAVYYCARQSDDTYYYWGYFDYWGQGTMVTVSS
VL: B3 VL with S22N, Y31F, S33G, E61Q, V91I, S99D, Y100V, G106Q, V110L
notes: Framework re-engineered humanized clone (parent huAb15v2), expressed as full-length IgG
B5: huAb102 (antibody, human IgG1, kappa, L234A L235A, V domains shown)
VH: B3 VH with K13Q
VL: B1 VL with N22S, F31Y, G33S, Q61E, I91V, D99S, V100Y, Q106G, L110V
notes: Framework re-engineered humanized clone (parent huAb3v1); also called CL-huAb102
B6: huAb106 (antibody, V domains shown)
VH: B1 VH with D102H
VL: B3 VL with S22N, Y31F, S33G, E61Q, V91I, S99D, Y100V, G106Q, V110L
notes: Framework re-engineered humanized clone (parent huAb15v1), expressed as full-length IgG
B7: huAb105 (antibody, V domains shown)
VH: B4 VH with D102H
VL: B3 VL with S22N, Y31F, S33G, E61Q, V91I, S99D, Y100V, G106Q, V110L
notes: as for B6
B8: huAb104 (antibody, human IgG1, kappa, L234A L235A, V domains shown)
VH: B3 VH with K13Q, N56Y, R57G
VL: B1 VL with N22S, F31Y, G33S, Q61E, I91V, D99S, V100Y, Q106G, L110V
notes: Framework re-engineered humanized clone (parent huAb3v2); also called CL-huAb104
B9: huAb103 (antibody, V domains shown)
VH: B3 VH with N56Y, R57G
VL: B3 VL
notes: Framework re-engineered humanized clone (parent huAb3v2), expressed as full-length IgG; also called haAb103
B10: huAb109 (antibody, V domains shown)
VH: B4 VH with S54D, G55A
VL: B3 VL with S22N, Y31F, S33G, E61Q, V91I, Y100S, G106Q, V110L
notes: Framework re-engineered humanized clone (parent huAb15v6), expressed as full-length IgG

One test has as its target T1, Human CD98 ECD with N-terminal His-tag (human, UniProt P08195 105-529).
T1 construct: The entry includes the linker and the polyhistidine tag; also called huCD98 ECD
T1 sequence: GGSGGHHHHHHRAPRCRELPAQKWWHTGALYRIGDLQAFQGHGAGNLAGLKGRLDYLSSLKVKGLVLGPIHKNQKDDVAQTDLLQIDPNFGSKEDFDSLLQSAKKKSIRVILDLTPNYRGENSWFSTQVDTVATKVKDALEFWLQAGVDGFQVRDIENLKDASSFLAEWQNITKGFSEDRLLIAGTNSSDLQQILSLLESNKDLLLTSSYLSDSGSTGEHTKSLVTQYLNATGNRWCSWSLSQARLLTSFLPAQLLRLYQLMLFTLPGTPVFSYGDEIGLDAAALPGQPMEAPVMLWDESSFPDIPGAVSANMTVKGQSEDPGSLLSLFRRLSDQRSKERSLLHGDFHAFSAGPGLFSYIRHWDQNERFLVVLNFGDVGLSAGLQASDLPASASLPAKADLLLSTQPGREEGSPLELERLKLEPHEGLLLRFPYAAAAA
Put plainly: SPR (Biacore), recombinant CD98 ECD. In general terms: Surface plasmon resonance follows binding to a sensor surface in real time, without labels.
Broadly, the Kd is the equilibrium constant for the complex coming apart. As a reminder, the koff is a measure of how fast the partners let go of each other. Broadly, the kon is the rate constant with which the complex forms. Consider B1, for which the Kd was determined as 0.55 nM, the off-rate constant (koff) amounted to 4.1e-05 s⁻¹ and the on-rate (kon) turned out to be 75000 M⁻¹ s⁻¹.
For the molecule B2, the dissociation constant (Kd) stood at 2.3 nM, the koff amounted to 0.0003 s⁻¹ and the on-rate (kon) was 130000 M⁻¹ s⁻¹.
The corresponding values for B3 are 6.1 nM, 0.0018 s⁻¹ and 290000 M⁻¹ s⁻¹.
The corresponding values for B4 are 0.33 nM, 3.8e-05 s⁻¹ and 110000 M⁻¹ s⁻¹.
Take B5: the dissociation constant (Kd) was determined as 5.5 nM, the koff stood at 0.0018 s⁻¹ and the association rate constant (kon) is 330000 M⁻¹ s⁻¹.
The corresponding values for B6 are 0.16 nM, 2.2e-05 s⁻¹ and 140000 M⁻¹ s⁻¹.
The corresponding values for B7 are 0.17 nM, 2.4e-05 s⁻¹ and 140000 M⁻¹ s⁻¹.
The corresponding values for B8 are 2 nM, 0.00091 s⁻¹ and 450000 M⁻¹ s⁻¹.
For B9, the Kd amounted to 3.4 nM, the koff turned out to be 0.00059 s⁻¹ and the association rate constant (kon) was 180000 M⁻¹ s⁻¹.
For B10 the same measures were 1.1 nM, 0.00017 s⁻¹ and 160000 M⁻¹ s⁻¹.

The target in the next test is T2, Cynomolgus monkey CD98 ECD with C-terminal His-tag (SEQ ID NO: 127) (cynomolgus monkey, UniProt P08195 105-529 (human entry)).
T2 construct: The entry includes the linker and the polyhistidine tag; also called cyCD98 ECD
T2 chain: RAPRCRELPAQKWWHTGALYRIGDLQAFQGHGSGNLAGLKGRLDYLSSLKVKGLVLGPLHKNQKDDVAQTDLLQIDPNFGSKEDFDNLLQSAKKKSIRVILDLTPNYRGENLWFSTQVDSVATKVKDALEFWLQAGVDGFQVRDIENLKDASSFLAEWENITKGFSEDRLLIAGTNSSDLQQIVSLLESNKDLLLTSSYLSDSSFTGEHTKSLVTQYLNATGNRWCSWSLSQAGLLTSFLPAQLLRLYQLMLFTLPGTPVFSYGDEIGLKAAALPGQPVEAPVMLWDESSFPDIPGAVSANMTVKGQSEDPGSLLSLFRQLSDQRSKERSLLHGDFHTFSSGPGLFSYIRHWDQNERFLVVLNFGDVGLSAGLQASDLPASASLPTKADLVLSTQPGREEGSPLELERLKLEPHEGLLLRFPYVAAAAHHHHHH
Put plainly: SPR (Biacore), recombinant CD98 ECD.
Consider B1, for which the equilibrium dissociation constant (Kd) turned out to be 4.6 nM, the koff came to 0.00014 s⁻¹ and the kon stood at 29000 M⁻¹ s⁻¹.
The corresponding values for B2 are 23 nM, 0.00051 s⁻¹ and 23000 M⁻¹ s⁻¹.
The corresponding values for B3 are 23 nM, 0.00067 s⁻¹ and 30000 M⁻¹ s⁻¹.
The corresponding values for B4 are 2.7 nM, 8.7e-05 s⁻¹ and 33000 M⁻¹ s⁻¹.
Take B5: the Kd is 21 nM, the koff was 0.00068 s⁻¹ and the kon came to 32000 M⁻¹ s⁻¹.
The corresponding values for B6 are 2.2 nM, 9.5e-05 s⁻¹ and 43000 M⁻¹ s⁻¹.
For B7 the same measures were 1.4 nM, 5.3e-05 s⁻¹ and 38000 M⁻¹ s⁻¹.
For B8 the same measures were 14 nM, 0.00048 s⁻¹ and 34000 M⁻¹ s⁻¹.
As for B9, the dissociation constant (Kd) is 14 nM, the koff amounted to 0.00044 s⁻¹ and the kon was 31000 M⁻¹ s⁻¹.
For B10 the same measures were 12 nM, 0.00031 s⁻¹ and 26000 M⁻¹ s⁻¹.
